The values below come from patent publication US20160075790A1 (Bristol-Myers Squibb, published 2016).

A word on the Kd: it is a measure of binding affinity in units of concentration. By koff is commonly meant a measure of how fast the partners let go of each other. In general, kon refers to the second-order rate constant of association.

Where two headings read alike, the source gives them in different places. Bounds are passed on as bounds.

In assay [1] the target is mouse CD40L (mouse) (UniProt P27548). Kind of assay: cell-based or functional assay.
Sequence of mouse CD40L (mouse) (P27548 112-260 limits assumed): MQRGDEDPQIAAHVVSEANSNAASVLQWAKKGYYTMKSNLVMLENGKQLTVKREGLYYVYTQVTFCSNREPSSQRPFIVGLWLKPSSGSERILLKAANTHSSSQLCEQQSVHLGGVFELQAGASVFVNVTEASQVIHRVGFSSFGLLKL
The target in assay [2] is human isoleucine zipper-CD40L (IZ-hCD40L) (human) (UniProt P29965). As to the kind of experiment: cell-based or functional assay.
The target in assay [3] is T1, human CD40L, membrane-bound on cells (human, UniProt P29965 1-261).
T1 sequence: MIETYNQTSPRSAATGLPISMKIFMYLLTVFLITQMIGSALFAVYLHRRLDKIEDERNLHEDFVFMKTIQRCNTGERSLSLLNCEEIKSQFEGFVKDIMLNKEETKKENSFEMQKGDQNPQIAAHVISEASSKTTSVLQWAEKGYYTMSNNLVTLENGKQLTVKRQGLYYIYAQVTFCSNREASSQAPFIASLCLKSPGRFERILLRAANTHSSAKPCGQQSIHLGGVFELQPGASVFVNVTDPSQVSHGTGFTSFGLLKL
Kind of assay: cell-based or functional assay.

Assay [4] concerns the target human CD32a (FcγRIIa), soluble (human) (UniProt P12318). Kind of assay: SPR; biphasic binding, steady state fit to the dominant binding event; pH 7.1.
Assay [5] has as its target cynomolgus monkey CD40L on cells (cynomolgus monkey) (UniProt G7Q1T4). As to the kind of experiment: in vivo receptor occupancy on monkey PBMC, 20 mg/kg IV, through 1032 h.
Assay [6] addresses human FcRn (human) (UniProt P55899). Kind of assay: SPR; captured on biot-IZ-hCD40L surface, soluble FcR as analyte; pH 6. For orientation: In SPR one partner is held on a chip, and binding of the other changes the refractive index at the surface.
The target of assay [7] is cynomolgus monkey CD40L on cells (cynomolgus monkey) (UniProt G7Q1T4). As to the kind of experiment: in vivo receptor occupancy on monkey PBMC, 20 mg/kg IV, 48 h post-dose.
The target of assay [8] is human CD64 (FcγRI) (human) (UniProt P12314). As to the kind of experiment: SPR; captured on biot-IZ-hCD40L surface, soluble FcR as analyte; pH 7.1.
Sequence of human CD64 (FcγRI) (human) (P12314 16-288 limits assumed): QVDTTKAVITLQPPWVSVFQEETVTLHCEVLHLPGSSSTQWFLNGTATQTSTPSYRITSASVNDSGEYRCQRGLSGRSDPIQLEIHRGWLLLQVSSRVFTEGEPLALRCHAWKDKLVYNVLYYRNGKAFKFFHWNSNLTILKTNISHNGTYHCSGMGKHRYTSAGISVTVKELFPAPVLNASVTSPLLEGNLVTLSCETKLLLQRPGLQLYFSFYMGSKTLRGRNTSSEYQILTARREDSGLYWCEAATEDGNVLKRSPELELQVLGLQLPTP
For assay [9], the target named is human CD16a (FcγRIIIa) (human) (UniProt P08637). Described as above.
Sequence of human CD16a (FcγRIIIa) (human) (P08637 17-208 limits assumed): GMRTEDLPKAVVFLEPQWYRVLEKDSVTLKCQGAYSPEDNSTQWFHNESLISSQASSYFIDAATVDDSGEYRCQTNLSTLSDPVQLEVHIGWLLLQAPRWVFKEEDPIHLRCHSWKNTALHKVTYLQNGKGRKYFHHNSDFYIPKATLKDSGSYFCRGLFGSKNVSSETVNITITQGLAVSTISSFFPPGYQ
In assay [10] the target is T2, biotinylated IZ-hCD40L (biot-IZ-hCD40L) (human, UniProt P29965 113-261, biotinylated).
T2 construct: biotinylated version of IZ-hCD40L captured on streptavidin chip; also called biotinylated CD40L; not shown: N-terminal isoleucine zipper motif
T2 sequence: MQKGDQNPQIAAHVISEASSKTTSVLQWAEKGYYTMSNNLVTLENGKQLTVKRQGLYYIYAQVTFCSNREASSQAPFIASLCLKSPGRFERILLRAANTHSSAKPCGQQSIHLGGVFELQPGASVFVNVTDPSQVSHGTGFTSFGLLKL
Kind of assay: SPR (Biacore), 25 C, 1:1 Langmuir; monovalent dAb. The source says:
The SPR experiments utilized a hCD40L construct containing an N-terminal isoleucine zipper motif (IZ-hCD40L) which facilitates the specific assembly of the CD40L molecule into the native trimeric form.

The target of assay [11] is T3, human isoleucine zipper-CD40L (IZ-hCD40L) (human, UniProt P29965 113-261).
T3 sequence: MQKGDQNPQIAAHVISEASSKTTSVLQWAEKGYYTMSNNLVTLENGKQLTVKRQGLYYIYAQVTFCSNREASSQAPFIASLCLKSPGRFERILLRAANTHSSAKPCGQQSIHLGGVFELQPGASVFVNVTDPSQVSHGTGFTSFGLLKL
Kind of assay: cell-based or functional assay.

Assay [12] concerns the target T1, human CD40L, membrane-bound on cells. As to the kind of experiment: cell-based or functional assay. The source holds these as a separate data set.
For assay [13], the target named is T3, human isoleucine zipper-CD40L …. Kind of assay: cell-based or functional assay. This is another data set of the same source.
Assay [14] concerns the target T1, human CD40L, membrane-bound on cells. Kind of assay: cell-based or functional assay. This is another data set of the same source.
Assay [15] concerns the target T4, human CD40L monomer triple mutant (T211E, S222Y, H224K, [108-261]) (human, UniProt P29965 108-261).
T4 construct: also called monomeric human CD40L
T4 chain: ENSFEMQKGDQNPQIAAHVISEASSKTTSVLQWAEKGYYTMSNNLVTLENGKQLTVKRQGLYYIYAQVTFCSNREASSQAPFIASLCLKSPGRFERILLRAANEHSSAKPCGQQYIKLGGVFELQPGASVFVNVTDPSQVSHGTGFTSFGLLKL
Kind of assay: SPR; dAb-CT-long captured on anti-human IgG Fc surface, CD40L monomer as analyte.

Sequence of human FcRn (human) (P55899 24-297 limits assumed, chain 1 of 2): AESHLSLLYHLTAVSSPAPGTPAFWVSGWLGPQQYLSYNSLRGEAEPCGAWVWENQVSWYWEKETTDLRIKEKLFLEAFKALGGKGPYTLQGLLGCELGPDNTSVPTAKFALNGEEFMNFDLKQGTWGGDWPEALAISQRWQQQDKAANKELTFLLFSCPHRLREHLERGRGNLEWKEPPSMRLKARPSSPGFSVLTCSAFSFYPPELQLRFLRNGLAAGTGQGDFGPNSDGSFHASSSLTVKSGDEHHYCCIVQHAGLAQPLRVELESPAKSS
Sequence of human FcRn (human) (P61769 21-119 limits assumed, chain 2 of 2, further chain): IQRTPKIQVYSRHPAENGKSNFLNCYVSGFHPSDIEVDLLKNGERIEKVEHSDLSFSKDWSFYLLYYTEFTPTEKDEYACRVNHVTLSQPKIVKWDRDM
Sequence of human CD32a (FcγRIIa), soluble (human) (P12318 36-218 limits assumed): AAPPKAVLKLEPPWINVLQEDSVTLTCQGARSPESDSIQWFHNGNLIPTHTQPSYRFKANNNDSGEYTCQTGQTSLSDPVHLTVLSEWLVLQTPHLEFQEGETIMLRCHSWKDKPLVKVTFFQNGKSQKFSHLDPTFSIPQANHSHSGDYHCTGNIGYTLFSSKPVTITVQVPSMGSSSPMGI

In assay [1], MR-1 (antibody) yielded a CHO-CD40L B cell Assay EC50 of 0.6 nM, a CHO-CD40L DC Assay IL-6 EC50 of 0.6 nM and a Trimer B cell Assay EC50 of 1.7 nM.
For 5c8 mAb (antibody), the Trimer B cell Assay EC50 in assay [2] was determined as 8 nM. Besides, in [3], the CHO-CD40L B cell Assay EC50 turned out to be 2 nM, the CHO-CD40L DC Assay IL-12 EC50 stood at 2 nM, the T-B MLR EC50 was 0.54 nM and the T-B MLR IL-6 EC50 stood at 0.23 nM.
Regarding 5c8-IgG1 (antibody), the Kd in [4] is 100 nM; in assay [6] it was 590 nM; in assay [8], below 0.05 nM; in [9], 240 nM. The molecule further gave a receptor occupancy in assay [5] above 97%. Besides, the mean peak receptor occupancy in assay [7] was determined as 100%.

B1: BMS2h-572-633 (other)
VH: EVQLLESGGGLVQPGGSLRLSCAASGFTFNWELMGWARQAPGKGLEWVSGIEGPGDVTYYADSVKGRFTISRDNSKNTLYLQMNSLRAEDTAVYYCVKVGKDAKSDYRGQGTLVTVSS
notes: VH dAb, monovalent
As to B1, in assay [10], the affinity, expressed as Kd, was 7.8 nM; the off-rate (koff) was 0.0081 s⁻¹; the kon was determined as 1e+06 M⁻¹ s⁻¹. For the same molecule, in assay [11], the “hIZCD40L-driven Human B Cell Proliferation EC50” value stood at 20 nM. For the same molecule, the “CHO-hCD40L-driven DC Activation IL-12 EC50” value in [12] came out at 53 nM.

B2: 2h572-633-CT Long Fc (Fc fusion)
chain: EVQLLESGGGLVQPGGSLRLSCAASGFTFNWELMGWARQAPGKGLEWVSGIEGPGDVTYYADSVKGRFTISRDNSKNTLYLQMNSLRAEDTAVYYCVKVGKDAKSDYRGQGTLVTVSS
notes: not shown: linker and CT Long Fc (CT-L2)
Consider B2, for which, in assay [13], the “hIZCD40L-driven Human B Cell Proliferation EC50” value stood at 3 nM. In addition, in [14], the “CHO-hCD40L-driven DC Activation IL-6 EC50” value was found to be 1.3 nM, the “CHO-hCD40L-driven DC Activation IL-12 EC50” value amounted to 1.9 nM, the “CHO-hCD40L-driven DC Activation IL-23 EC50” value was 1.2 nM and the “CHO-hCD40L-driven DC Activation TNF EC50” value was 1.7 nM. Further, in assay [14], the “CHO-hCD40L-driven Human B Cell Proliferation EC50” value was found to be 1 nM, the “T-B cell MLR EC50” value was 0.174 nM and the “T-B cell MLR IL-6 EC50” value is 0.13 nM. In addition, the binding result in assay [15] was “no binding”.

B3: 2h572-634-CT Long Fc (Fc fusion)
chain: EVQLLESGGGLVQPGGSLRLSCAASGFTFNWELMGWARQAPGKGLEWVSGIEGPGDVTYYADSVKGRFTISRDNSKNTLYLQMNSLRAEDTAVYYCVKVGKDSRSDYRGQGTLVTVSS
notes: as for B2
For the molecule B3, the “hIZCD40L-driven Human B Cell Proliferation EC50” value in assay [13] came out at 2 nM. In assay [14], the “CHO-hCD40L-driven DC Activation IL-12 EC50” value turned out to be 1.5 nM, the “CHO-hCD40L-driven Human B Cell Proliferation EC50” value was found to be 1 nM, the “T-B cell MLR EC50” value turned out to be 0.162 nM and the “T-B cell MLR IL-6 EC50” value amounted to 0.13 nM. Moreover, the binding result in assay [15] is on record as “no binding”.
